These results are taken from publication PMC2110890, “Glutathione mediated regulation of oligomeric structure and functional activity of Plasmodium falciparum glutathione S-transferase” (BMC Structural Biology, 2007).

Data set [1] addresses human GST (human) (UniProt P09211). Description: cross-linking; 1% glutaraldehyde, 30 min, room temperature, protein 50 μg/mL, 10% SDS-PAGE; sample without GSH.
Data set [2] shares this target. Description: cross-linking; 1% glutaraldehyde, 30 min, room temperature, protein 50 μg/mL, 10% SDS-PAGE; sample incubated with GSH.
The target is the same in data set [3]. In words: SEC; Superdex 200 10/300 GL, 100 mM potassium phosphate pH 8.0, 1 mM EDTA, 0.3 mL/min, 25°C; incubated and run without GSH. In general terms: In gel filtration, larger molecules generally elute earlier.
For data set [4] the target is unchanged. Description: SEC; Superdex 200 10/300 GL, 100 mM potassium phosphate pH 8.0, 1 mM EDTA, 25°C; incubated and run with GSH at 0.7 mM or more (2 mM GSH in Figures 1B and 3).
Data set [5] deals with the molecule itself. In words: SEC; GSH-stabilized dimer dialysed for 4 h against buffer without GSH, then loaded on the column.
Data set [6] concerns the molecule itself. Description: SEC; Superdex 200 10/300 GL, 100 mM potassium phosphate pH 8.0, 1 mM EDTA, 0.3 mL/min, 25°C; incubated and run without GSH.
Data set [7] deals with the molecule itself. In words: SEC; Superdex 200 10/300 GL, 100 mM potassium phosphate pH 8.0, 1 mM EDTA, 25°C; incubated and run with GSH at 0.7 mM or more (2 mM GSH in Figures 1B and 3).

As a reminder, the stoichiometry N is the number of molecules, sites or subunits per partner or assembly.

For the molecule “human GST (from UniProt P09211 1-210) (enzyme)”, the stoichiometry N in the data set with human GST (human) [1], in the data set with human GST (human) [2], with human GST (human) [3] and in the data set with human GST (human) [4] was 2 throughout.

B1: Plasmodium falciparum glutathione S-transferase (enzyme, UniProt Q8ILQ7 1-211, looked up)
chain: MGDNIVLYYFDARGKAELIRLIFAYLGIEYTDKRFGVNGDAFVEFKNFKKEKDTPFEQVPILQIGDLILAQSQAIVRYLSKKYNICGESELNEFYADMIFCGVQDIHYKFNNTNLFKQNETTFLNEDLPKWSGYFEKLLKKNHTNNNNDKYYFVGNNLTYADLAVFNLYDDIETKYPSSLKNFPLLKAHNEFISNLPNIKNYITNRKESVY
notes: Glutathione S-transferase of Plasmodium falciparum (PfGST), recombinant, about 26 kDa on SDS-PAGE; The chain is a homotetramer without GSH and a homodimer at GSH of 0.7 mM or more, so copies is left empty; also called PfGST; recombinant PfGST; source: E. coli M15, purified (Ni-NTA agarose)
For the molecule B1, the “ratio of dimer to tetramer” value in data set [5] is ~0.33 dimer:tetramer. For the same molecule, the “stoichiometry N” value in data set [6] stood at 4; in data set [7], 2.
